± gives the standard error.

This series is described as follows: background-corrected fluorescence of 3'-dye-labeled ssDNA relative to brightest sequence (3'-GCGCG) (fraction); higher = brighter dye fluorescence (less quenching). The procedure, abridged:
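Single-stranded DNA was built on glass slides by light-directed phosphoramidite synthesis, ending in a 3' Cy3 or Cy5 dye beside each of 1024 permuted pentamers. Arrays were washed in acetonitrile for 2 h at r.t., then scanned at 532 or 635 nm before and after overnight ethylenediamine/ethanol deprotection. Each value averages 10 features per array and at least 3 syntheses. Fluorescence, corrected by subtracting unlabeled-oligo background, is scaled to the brightest sequence.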

With “TTTTTTGATGCGCAGCATGCTTTTTTTTTTTTTTTCATTA [ATTAC]”, the background-corrected fluorescence reads like this: (dye: Cy3 (3' terminal)) 0.554 ± 0.021; (dye: Cy5 (3' terminal)) 0.398 ± 0.027.

As for “TTTTTTGCTGCTCAGCATCATTTTTTTTTTTTTTTAAGTG [GTGAA]”, the background-corrected fluorescence is, setting by setting: (dye: Cy3 (3' terminal)) 0.587 ± 0.027; (dye: Cy5 (3' terminal)) 0.457 ± 0.042.

With “TTTTTTCATGATGATCATCATTTTTTTTTTTTTTTGCCGG [GGCCG]”, the background-corrected fluorescence is, setting by setting: (dye: Cy3 (3' terminal)) 0.665 ± 0.025; (dye: Cy5 (3' terminal)) 0.564 ± 0.072.

The sequence “TTTTTTCATGAGCATCATGCTTTTTTTTTTTTTTTGCTGA [AGTCG]” returned a background-corrected fluorescence (dye: Cy3 (3' terminal)) of 0.5917 ± 0.0054 and a background-corrected fluorescence (dye: Cy5 (3' terminal)) of 0.525 ± 0.036.

Consider “TTTTTTGCTGAGCATGCTGATTTTTTTTTTTTTTTACTAC [CATCA]”, for which the background-corrected fluorescence by setting is: (dye: Cy3 (3' terminal)) 0.477 ± 0.017; (dye: Cy5 (3' terminal)) 0.328 ± 0.035.

In the case of “TTTTTTGCTGAGCATCATGATTTTTTTTTTTTTTTACTGC [CGTCA]”, the background-corrected fluorescence is, setting by setting: (dye: Cy3 (3' terminal)) 0.491 ± 0.033; (dye: Cy5 (3' terminal)) 0.365 ± 0.028.

The sequence “TTTTTTCAGCATGAGCAGCATTTTTTTTTTTTTTTGTCTT [TTCTG]” registered a background-corrected fluorescence (dye: Cy3 (3' terminal)) of 0.505 ± 0.017 and a background-corrected fluorescence (dye: Cy5 (3' terminal)) of 0.364 ± 0.03.

In the case of “TTTTTTGCTGCTCAGCATGATTTTTTTTTTTTTTTAAGTC [CTGAA]”, the background-corrected fluorescence came out at 0.438 ± 0.029 (dye: Cy3 (3' terminal)) and 0.349 ± 0.015 (dye: Cy5 (3' terminal)).

“TTTTTTGATGCGCATGCGCATTTTTTTTTTTTTTTCATAT [TATAC]”: the background-corrected fluorescence is, setting by setting: (dye: Cy3 (3' terminal)) 0.501 ± 0.036; (dye: Cy5 (3' terminal)) 0.397 ± 0.025.

Turning to “TTTTTTCATGCTGCGCATGCTTTTTTTTTTTTTTTGAATA [ATAAG]”, the background-corrected fluorescence turned out to be 0.553 ± 0.025 (dye: Cy3 (3' terminal)) and 0.42 ± 0.053 (dye: Cy5 (3' terminal)).

In the case of “TTTTTGCATGCTGCGCATGATTTTTTTTTTTTTTTTAATC [CTAAT]”, the background-corrected fluorescence reads like this: (dye: Cy3 (3' terminal)) 0.458 ± 0.036; (dye: Cy5 (3' terminal)) 0.303 ± 0.015.

Consider “TTTTTTGCTGCTCATGCTGCTTTTTTTTTTTTTTTAAGAA”, for which the background-corrected fluorescence by setting is: (dye: Cy3 (3' terminal)) 0.619 ± 0.015; (dye: Cy5 (3' terminal)) 0.481 ± 0.022.

“TTTTTTGCGCATCAGCAGCATTTTTTTTTTTTTTTATGTT [TTGTA]” displayed a background-corrected fluorescence (dye: Cy3 (3' terminal)) of 0.575 ± 0.028 and a background-corrected fluorescence (dye: Cy5 (3' terminal)) of 0.432 ± 0.035.

In the case of “TTTTTTGATGCGCAGCAGCATTTTTTTTTTTTTTTCATTT [TTTAC]”, the background-corrected fluorescence is, setting by setting: (dye: Cy3 (3' terminal)) 0.523 ± 0.022; (dye: Cy5 (3' terminal)) 0.38 ± 0.032.

“TTTTTTGATGCTGATGATGATTTTTTTTTTTTTTTCACCC [CCCAC]”: the background-corrected fluorescence turned out to be 0.37 ± 0.028 (dye: Cy3 (3' terminal)) and 0.271 ± 0.019 (dye: Cy5 (3' terminal)).

Regarding “TTTTTTGCTGCGCAGCATGATTTTTTTTTTTTTTTAATTC [CTTAA]”, the background-corrected fluorescence was 0.419 ± 0.015 (dye: Cy3 (3' terminal)) and 0.297 ± 0.018 (dye: Cy5 (3' terminal)).

Consider “TTTTTTGATCATGAGCATCATTTTTTTTTTTTTTTCGCTG [GTCGC]”, for which the background-corrected fluorescence (dye: Cy3 (3' terminal)) worked out at 0.534 ± 0.014 and the background-corrected fluorescence (dye: Cy5 (3' terminal)) was 0.423 ± 0.043.

For “TTTTTTCATGAGCAGCAGCATTTTTTTTTTTTTTTGCTTT [TTTCG]”, the background-corrected fluorescence reads like this: (dye: Cy3 (3' terminal)) 0.5304 ± 0.0051; (dye: Cy5 (3' terminal)) 0.384 ± 0.038.

“TTTTTTGCTGATGCGCAGCATTTTTTTTTTTTTTTACATT”: the background-corrected fluorescence reads like this: (dye: Cy3 (3' terminal)) 0.546 ± 0.011; (dye: Cy5 (3' terminal)) 0.384 ± 0.021.

In the case of “TTTTTGCAGCATCAGCATGCTTTTTTTTTTTTTTTTTGTA [ATGTT]”, the background-corrected fluorescence worked out at 0.576 ± 0.02 (dye: Cy3 (3' terminal)) and 0.487 ± 0.053 (dye: Cy5 (3' terminal)).

Take “TTTTTGCATCATGCTCATGCTTTTTTTTTTTTTTTTGAGA [AGAGT]”: the background-corrected fluorescence turned out to be 0.679 ± 0.038 (dye: Cy3 (3' terminal)) and 0.593 ± 0.044 (dye: Cy5 (3' terminal)).

“TTTTTTGCGCATGCGCATGATTTTTTTTTTTTTTTATATC [CTATA]” yielded a background-corrected fluorescence (dye: Cy3 (3' terminal)) of 0.438 ± 0.025 and a background-corrected fluorescence (dye: Cy5 (3' terminal)) of 0.322 ± 0.017.

Turning to “TTTTTTGCTCATGCTGCGCATTTTTTTTTTTTTTTAGAAT [TAAGA]”, the background-corrected fluorescence (dye: Cy3 (3' terminal)) is 0.59 ± 0.032 and the background-corrected fluorescence (dye: Cy5 (3' terminal)) worked out at 0.449 ± 0.024.

“TTTTTTGATGCTGATGATCATTTTTTTTTTTTTTTCACCG [GCCAC]”: the background-corrected fluorescence (dye: Cy3 (3' terminal)) is 0.505 ± 0.024 and the background-corrected fluorescence (dye: Cy5 (3' terminal)) stood at 0.423 ± 0.058.

For “TTTTTGCATGATGAGCATCATTTTTTTTTTTTTTTTCCTG [GTCCT]”, the background-corrected fluorescence is, setting by setting: (dye: Cy3 (3' terminal)) 0.475 ± 0.028; (dye: Cy5 (3' terminal)) 0.366 ± 0.034.

Turning to “TTTTTTGCGCATGAGCATCATTTTTTTTTTTTTTTATCTG [GTCTA]”, the background-corrected fluorescence is 0.55 ± 0.026 (dye: Cy3 (3' terminal)) and 0.371 ± 0.036 (dye: Cy5 (3' terminal)).

Turning to “TTTTTTGATGAGCAGCATCATTTTTTTTTTTTTTTCCTTG [GTTCC]”, the background-corrected fluorescence reads like this: (dye: Cy3 (3' terminal)) 0.547 ± 0.021; (dye: Cy5 (3' terminal)) 0.378 ± 0.025.

Regarding “TTTTTTCATGCTGATGCTGCTTTTTTTTTTTTTTTGACAA [AACAG]”, the background-corrected fluorescence stood at 0.537 ± 0.032 (dye: Cy3 (3' terminal)) and 0.415 ± 0.022 (dye: Cy5 (3' terminal)).

With “TTTTTGCAGCATGATGCTGCTTTTTTTTTTTTTTTTTCAA [AACTT]”, the background-corrected fluorescence runs as follows: (dye: Cy3 (3' terminal)) 0.545 ± 0.04; (dye: Cy5 (3' terminal)) 0.422 ± 0.055.

(Values after the supplement of paper PMC9428881.)
